Measurements published in patent US20250250362A1 (Chugai, published 2025).

Molecular target: T1, soluble human GPC3 (human, UniProt P51654 25-563)
T1 construct: range 25-563; whole entry named for human GPC3 (NP_001158089.1); also called glypican 3
Test: SPR (Biacore)

T1 sequence (P51654 25-563 limits assumed): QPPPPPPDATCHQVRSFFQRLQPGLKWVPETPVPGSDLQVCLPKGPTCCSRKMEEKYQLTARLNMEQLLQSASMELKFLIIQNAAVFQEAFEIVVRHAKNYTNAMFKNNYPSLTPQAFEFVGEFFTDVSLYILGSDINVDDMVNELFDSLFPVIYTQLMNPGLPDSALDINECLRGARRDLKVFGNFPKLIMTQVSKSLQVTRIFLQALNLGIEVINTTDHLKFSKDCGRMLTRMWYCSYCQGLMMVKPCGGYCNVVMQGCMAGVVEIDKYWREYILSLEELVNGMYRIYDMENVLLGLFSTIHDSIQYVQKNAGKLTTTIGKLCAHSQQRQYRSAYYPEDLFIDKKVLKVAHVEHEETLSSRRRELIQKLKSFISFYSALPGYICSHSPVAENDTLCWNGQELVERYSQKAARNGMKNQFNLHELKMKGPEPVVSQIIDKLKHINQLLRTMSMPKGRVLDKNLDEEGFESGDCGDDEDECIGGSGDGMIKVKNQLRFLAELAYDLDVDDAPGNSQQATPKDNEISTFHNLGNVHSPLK

Kd: 4.54 nM
B1: H0610-G1dh/none-Hi-Kn010G3/L0129-k0 (antibody, V domains shown)
VH: QVQLVQSGAEVKKPGASVKVSCKASGYTFTDYEMHWIRQPPGQGLEWIGAIDGKTPDTAYSQKFKGRVTLTADKSTSTAYMELSSLTSEDTAVYYCTRFYSYTYWGQGTLVTVSS
VL: DIVMTQSPLSLPVTPGEPASISCRSSQSLVHSNRNTYLHWYQQKPGQAPRLLIYKVSNRRSGVPDRFSGSGSGTDFTLKISRVEAEDVGVYYCGQGTQVPYTFGQGTKLEIK
notes: one-arm
